Positions count from the first letter of the chain named.
B1: 3F4人源化抗体 (VH SEQ ID NO:15 + VL SEQ ID NO:19) (antibody, V domains shown)
VH: EVQLVESGGGLVQPGGSLRLSCAASGFSLSSYWMSWVRQAPGKGLEWVSIIFTGGSTYYASWAKGRFTISRHNSKNTLYLQMNSLRAEDTAVYYCARTSYYDVSGWGVGRLDLWGQGTLVTVSS
VL: DIQMTQSPSTLSASVGDRVTITCQSSQSVYDNNWLGWYQQKPGKAPKLLIYSASTLASGVPSRFSGSGSGTEFTLTISSLQPDDFATYYCAGGYSGNIFAFGQGTKLEILR
B2: 3F4人源化抗体 (VH SEQ ID NO:16 + VL SEQ ID NO:19) (antibody, V domains shown)
VH: B1 VH with V48I, S49G
VL: B1 VL
B3: 3F4人源化抗体 (VH SEQ ID NO:17 + VL SEQ ID NO:19) (antibody, V domains shown)
VH: B1 VH with V92T, Y94F
VL: B1 VL
B4: 3F4人源化抗体 (VH SEQ ID NO:18 + VL SEQ ID NO:19) (antibody, V domains shown)
VH: B1 VH with A23T, A24V
VL: B1 VL
B5: 兔源单克隆抗体3F4 (antibody, V domains shown)
VH: QSVKESGGRLVTPGTPLTLTCTVSGFSLSSYWMSWVRQAPGKGLEWIGIIFTGGSTYYASWAKGRFTISKTSTTVDLKITSPTTEDTATYFCARTSYYDVSGWGVGRLDLWGQGTLVTVSS
VL: DPMLTQTASSVSAAVGGTVTISCQSSQSVYDNNWLGWYQQKPGQPPKLLIYSASTLASGVPSRFKGSGSGTQFTLTISDLECDDAATYYCAGGYSGNIFAFGGGTELEIL
notes: also called r3F4

Legend:
SARS-CoV-2受体结合区RBD-His蛋白 [1] = biological target: T1, SARS-CoV-2受体结合区RBD-His蛋白 (SARS-CoV-2, UniProt P0DTC2 316-550); experiment: indirect ELISA, RBD-His coated at 2 μg/mL, HRP goat anti-human IgG
T1 construct: range 316-550

[2] = biological target: SARS-CoV-2 Sde18截短蛋白 (假病毒SARS-CoV2 VSVpp所携带) (SARS-CoV-2, UniProt P0DTC2 14-1255); experiment: cell-based or functional assay
SARS-CoV-2受体结合区RBD-mFc = biological target: T2, SARS-CoV-2受体结合区RBD-mFc (SARS-CoV-2, UniProt P0DTC2 319-541); experiment: indirect ELISA, RBD-mFc coated at 2 μg/mL, HRP goat anti-rabbit IgG
T2 construct: domain: 受体结合区RBD

SARS-CoV-2受体结合区RBD-His蛋白 [3] = biological target: T1, SARS-CoV-2受体结合区RBD-His蛋白

| Binder | binding result (SARS-CoV-2受体结合区RBD-His蛋白 [1]) | IC50 (SARS-CoV2 VSVpp假病毒感染模型中和, BHK21-hACE2细胞) [2] [ng/mL] | EC50 (SARS-CoV-2受体结合区RBD-mFc) [ng/mL] | Kd (SARS-CoV-2受体结合区RBD-His蛋白 [3]) [nM] |
| --- | --- | --- | --- | --- |
| B1 | binds |  |  |  |
| B2 | binds |  |  |  |
| B3 | binds |  |  |  |
| B4 | binds |  |  |  |
| B5 |  | 1.95 | 14.4 | 8.79 |

From patent CN113583115A (YANG SHENG TANG CO LTD; UNIV XIAMEN, dated 2021)
